Data reported in patent US20260224446A1, “BIFUNCTIONAL PEPTIDES USEFUL FOR COLLAGEN INTRAFIBRILLAR MINERALIZATION” (University of Kansas, priority 2023, published 2026).
Several values for one entry are separate records, joined by “and”; a condition that tells them apart may be missing. Equal values may be shown once. No end group written: not given here.

Experiments:
Type 1 rat tail collagen [1] = molecular target: T1, Type 1 rat tail collagen (Rattus norvegicus, UniProt P02454+P02466); experiment: Collagen fibril self-assembly with incorporated peptide, AFM topography fibril widths; details: peptide co-assembled with collagen (50 nanomoles in 1 mL of 3 mg/mL), drop-cast on mica
T1 construct: Collagen Type 1 solution from rat tail (3 mg/mL, C3867, 95%) was purchased from Sigma-Aldrich; purchased Sigma-Aldrich C3867; host or cells: rat tail (tissue-derived)
T1 sequence (P02466 86-1125 limits assumed): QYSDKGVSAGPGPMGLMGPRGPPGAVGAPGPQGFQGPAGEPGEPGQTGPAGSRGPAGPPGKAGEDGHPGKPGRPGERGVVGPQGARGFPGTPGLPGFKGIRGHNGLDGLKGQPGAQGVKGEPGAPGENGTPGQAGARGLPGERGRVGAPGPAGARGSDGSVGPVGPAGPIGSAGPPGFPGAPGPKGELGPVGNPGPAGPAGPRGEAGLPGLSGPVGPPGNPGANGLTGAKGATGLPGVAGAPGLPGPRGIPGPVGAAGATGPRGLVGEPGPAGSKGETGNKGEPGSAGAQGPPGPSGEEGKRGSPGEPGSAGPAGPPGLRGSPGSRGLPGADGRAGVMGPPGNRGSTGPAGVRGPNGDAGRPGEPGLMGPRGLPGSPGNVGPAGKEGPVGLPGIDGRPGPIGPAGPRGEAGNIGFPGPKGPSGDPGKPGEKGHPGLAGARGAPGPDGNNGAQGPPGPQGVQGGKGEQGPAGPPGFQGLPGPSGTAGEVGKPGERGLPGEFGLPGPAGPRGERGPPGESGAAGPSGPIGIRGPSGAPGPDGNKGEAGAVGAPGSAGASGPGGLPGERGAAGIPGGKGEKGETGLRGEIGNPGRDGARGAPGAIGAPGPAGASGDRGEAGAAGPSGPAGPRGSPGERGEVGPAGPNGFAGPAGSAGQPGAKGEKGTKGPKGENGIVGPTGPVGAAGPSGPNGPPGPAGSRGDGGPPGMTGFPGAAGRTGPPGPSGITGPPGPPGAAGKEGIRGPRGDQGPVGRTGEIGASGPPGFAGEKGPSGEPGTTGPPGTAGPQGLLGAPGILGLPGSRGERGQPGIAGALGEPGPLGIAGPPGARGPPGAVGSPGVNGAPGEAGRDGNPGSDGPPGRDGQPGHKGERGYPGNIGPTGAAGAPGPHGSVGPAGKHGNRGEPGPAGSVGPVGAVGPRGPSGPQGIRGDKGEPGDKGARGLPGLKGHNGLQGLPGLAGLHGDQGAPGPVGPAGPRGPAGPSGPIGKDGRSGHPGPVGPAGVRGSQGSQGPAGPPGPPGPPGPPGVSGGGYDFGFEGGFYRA
T1 sequence (P02454 152-1207 limits assumed): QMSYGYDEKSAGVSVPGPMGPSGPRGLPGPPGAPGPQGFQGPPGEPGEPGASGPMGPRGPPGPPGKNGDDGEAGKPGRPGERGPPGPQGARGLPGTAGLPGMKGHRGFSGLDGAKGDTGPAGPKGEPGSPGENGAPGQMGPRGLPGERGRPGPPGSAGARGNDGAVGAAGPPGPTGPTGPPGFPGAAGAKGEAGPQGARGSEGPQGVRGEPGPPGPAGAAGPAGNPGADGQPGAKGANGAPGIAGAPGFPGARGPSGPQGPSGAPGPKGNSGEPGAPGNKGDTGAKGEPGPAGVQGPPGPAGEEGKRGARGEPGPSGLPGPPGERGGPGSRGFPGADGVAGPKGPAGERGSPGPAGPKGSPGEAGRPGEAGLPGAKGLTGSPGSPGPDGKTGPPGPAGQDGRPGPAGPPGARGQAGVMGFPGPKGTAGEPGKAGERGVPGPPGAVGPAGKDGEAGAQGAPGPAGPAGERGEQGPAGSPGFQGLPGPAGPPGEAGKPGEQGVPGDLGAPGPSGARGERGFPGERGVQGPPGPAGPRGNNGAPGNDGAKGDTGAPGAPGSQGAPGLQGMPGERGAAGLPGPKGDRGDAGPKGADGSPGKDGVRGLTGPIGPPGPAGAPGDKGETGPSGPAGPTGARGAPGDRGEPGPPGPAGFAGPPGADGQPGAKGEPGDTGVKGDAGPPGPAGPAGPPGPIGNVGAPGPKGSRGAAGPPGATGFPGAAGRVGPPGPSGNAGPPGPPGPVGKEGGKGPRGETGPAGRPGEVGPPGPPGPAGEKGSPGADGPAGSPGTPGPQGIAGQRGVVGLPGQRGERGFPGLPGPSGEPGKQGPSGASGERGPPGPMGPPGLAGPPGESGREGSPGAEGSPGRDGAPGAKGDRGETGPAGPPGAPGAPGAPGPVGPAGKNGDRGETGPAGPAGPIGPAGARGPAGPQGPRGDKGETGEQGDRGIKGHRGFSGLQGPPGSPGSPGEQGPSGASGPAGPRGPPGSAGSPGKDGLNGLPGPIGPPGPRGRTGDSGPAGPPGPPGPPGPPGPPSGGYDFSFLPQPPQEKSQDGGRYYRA
Protocol: (§1) Grade V1 round mica, 0.21 mm thick and 12 mm in diameter, was used as the substrate surface and mounted onto a 12 mm atomic force microscopy specimen disc using STKYDOT adhesive. In 1 mL of 3 mg/mL Type 1 rat tail collagen suspension, 50 nanomoles of peptide were added. The ratio of mass collagen to mass peptide ranged from 100 wt collagen: 1 wt peptide for single domains to 100 wt collagen: 3 wt peptide for the chimeric peptide. Once peptide was dissolved and gently mixed in the collagen suspension, 150 μL was drop-cast onto the substrate surface and left to self-assemble at 4° C. for 16 h.
(§2) A Bruker Multimode 8 HR scanning probe microscope (Bruker Nano Inc., Camarillo, CA, USA) was operated in peak force tapping mode with the capability of Quantitative Nanomechanics (PeakForce-QNM) in air mode conditions (24±2° C., 40%±5% RH). This advanced testing mode was used to examine the topographical and nanomechanical property changes of the collagen-peptide samples both before and after mineralization. Tapping mode etched silicon probes, type RTESPA 525-30 (Bruker Nano Inc., Camarillo, CA, USA) with a resonant frequency of about 518 kHz, were used to acquire images (1 μm×3 μm and 5 μm×5 μm) at scan rate of 0.5 Hz with 512 pixel/line resolution. The images of the samples were recorded using NanoScope 8.15 software and analyzed using NanoScope Analysis 2.0 software (Bruker Nano Inc., Camarillo, CA, USA).
Building upon the conformational flexibility of the peptide, the CBP-HABP1 peptide was then studied for the assembly properties on the collagen fibrils on mica substrate using AFM topography image analysis. The images were acquired in tapping mode. Non-fibril features, indicated as intensity saturated regions on the surface, are acetic acid salt crystals from the evaporation of the solution in which the collagen was suspended. These features were excluded from image to prevent signal shadowing of the surface fibril assembly. […] Collagen+ (CBP-HABP1) fibrils were measured to be smaller than collagen-alone fibrils, resulting in a statistically significant difference. […]

Type 1 rat tail collagen [2] = molecular target: T1, Type 1 rat tail collagen; experiment: PeakForce-QNM AFM modulus mapping of peptide-functionalized collagen pre/post ALP-driven mineralization; details: peptide incorporated into collagen
Protocol: as §1
(§3) ALP-driven mineralization was executed following the protocol discussed in Gungormus et al. (2008). The mineralization buffer prepared was composed of 24.4 Ca^2+ mM and 14.4 mM B-glycerophosphate made in 25 mM Tris-HCl buffer at pH 7.4, and 200 μL/well was added to a 24-well plate. Collagen-peptide samples were placed gently within the well to lay flat at the bottom. The mineralization reaction was initiated by adding FastAP (thermosensitive alkaline phosphatase), 1.4×10^−6 g/mL, and left to incubate at 37° C. for 20 min. The samples were then removed from the wells, gently rinsed in sterile-filtered water, and left to air dry overnight. Throughout this process the samples were handled in a horizontally flat manner to prevent disturbing the peptide-functionalized collagen layer on the surface of the substrate.
as §2
Building on the observed effects of the chimeric peptide on the collagen, next examined was if there was a change on the mechanical properties of the collagen due to the peptide presence. Quantitative modulus mapping was executed via PeakForce-QNM AFM to observe the changes in the elastic modulus distribution on the surfaces. The elastic modulus was previously established to be derived by using the Derjaguin-Muller-Toropov (DMT) model, and is thus reported as the DMT modulus. […]

Type 1 rat tail collagen [3] = molecular target: T1, Type 1 rat tail collagen; experiment: SEM/EDS of Ca-P deposits on peptide-incorporated collagen after ALP-driven mineralization; assay type: biochemical; details: for average Ca—P ratio: EDS, initial mineral on peptide-incorporated collagen after 20 min ALP-driven mineralization; for mineral formation morphology on SEM images: peptide-incorporated collagen after ALP-driven mineralization
Protocol: as §1, §3
In order to examine initial intrafibrillar mineral formation and morphology and determine Ca/P ratios precipitated on the peptide-functionalized collagen surface, a Cold Field Emission Scanning […] Microscope (SEM, S-4700 model, Hitachi High-Tech America, Schaumburg, IL, USA) equipped with a silicon drift energy-dispersive detector (EDS, X-max, Oxford Instruments, Concord, MA, USA) was used via the Microscopy and Analytical Imaging Research Resource Core Laboratory (RRID:SCR_021801). Collagen-peptide samples were sputter-coated with 3 nm gold using a Quorum sputter coating system (Q150, Quorum, Laughton, East Sussex, UK). SEM imaging was completed at an acceleration voltage of 10 kV at ultra-high resolution operating mode and EDS measurements were made at 10 kV under normal operating mode to preserve the integrity of the collagen-peptide layer and prevent burning during signal capture. EDS analysis was performed through AZtec software (X-MaxN, Oxford Instruments, Concord, MA, USA).
The composition and morphology of the Ca—P deposits formed on collagen samples were examined using scanning electron microscopy (SEM) with energy dispersive X-ray analysis (EDS). […] The EDS results validated the finding of Ca—P mineral isomorphs on the peptide-incorporated collagen platforms. The calcium/phosphate ratios were calculated to examine compositional differences. […] Whereas collagen+ (CBP) and collagen+ (CBP-HABP1) had comparatively lower average Ca—P ratios at 1.30 and 1.25, respectively. These values are similar to the molar ratio of octacalcium phosphate, which is around 1.33, and amorphous calcium phosphate (ACP), which is roughly 1.50 [54-57].

[4] = ALP-driven mineralization of adhesive/dentin specimen with HABP1, RAMAN imaging with Divisive Clustering Analysis; assay type: biochemical, human; details: for MNRp 960/1460: RAMAN peak ratio; for FMHW PO4^−3): RAMAN, after ALP-driven mineralization; for GMC 1078/960: carbonate to phosphate peak ratio; for Ca-P/collagen 960/1667: phosphate to amide I peak ratio
Protocol: as §3
Demineralized dentin samples, adhesive/dentin samples (pre/post mineralization), and SC collagen on glass were imaged using a LabRAM ARAMIS Raman microscope (HORIBA Jobin Yvon, Edison, NJ, USA), equipped with a HeNe laser (2=[…], laser power=17 mW). Light micrograph images were taken using a 50× long working distance objective Olympus lens. The samples spectra were evaluated over a wavelength range of 300 cm^−1 to 1800 cm^−1 with a 15 s spectra acquisition time of 4 acquisitions per cycle and processed using LabSPEC 6 software (HORIBA Jobin Yvon, Edison, NJ, USA). Divisive Clustering Analysis (DCA) was used to classify and group respective spectra. This multivariate analysis method was integrated into the LabSPEC 6 analysis software as a Multivariate Analysis (MVA) module (powered by Eigenvector Research Inc., HORIBA Jobin Yvon, NJ, USA). A rectangular area of the surface was imaged and submitted to this multivariate analysis where a statistical pattern determined derived independent clusters to present chemically distinct regions. Average spectra are calculated per cluster which were used to provide information on particular peak parameters and component distribution in the resulting spectra. These components were analyzed for relative degree of mineralization via mineral-to-matrix ratio (MMR), inferred from the ratio of peak intensities at 960 cm^−1 (phosphate) and 1460 cm^−1 (CH2 bending), crystallinity via full width at half maximum (FWHM) from the v1 phosphate band (960 cm^−1), and the carbonate content of mineral crystallites via gradient in mineral content (GMC), based on ratio of relative carbonate (10^70 cm^−1) and phosphate (960 cm^−1) peak heights. The calcium-phosphate (Ca/P) to collagen ratio was also assessed to understand the relative thickness of the mineral formed during mineralization. This would help in comparative evaluations between the samples.
Next evaluated was the use of HABP1 to potentially direct mineralization within the adhesive/demineralized dentin hybrid layer. To do this RAMAN Divisive Clustering Analysis (DCA) was used, a hierarchical k-means clustering method which is useful for identifying the internal structure of multi-layer datasets. We mapped the most distinctive mineral composition variations associated with the collagen matrix structural variations according to their RAMAN spectra. […] The DCA method measures similarity in three parameters: ratio of 960/1460 peak (e.g., mineral-to-matrix ratio), ratio of 1078/960 (gradient mineral carbonation, GMC: carbonate to phosphate) peak, and ratio of the 960/1667 peaks (phosphate to collagen with retained amide I structure, Ca/P collagen). The spectral feature at 1460 cm^−1 is assigned to the CH2 wag for collagen, and 1667 cm^−1 is the amide I peak for the collagen used. The 960 cm^−1 peak is the v1 phosphate stretching vibration associated with the mineral and 10^78 cm^−1 is the band for v1 carbonate. The method clusters the following groups: collagen only, mineral group I, and mineral group II. […]

[5] = molecular target: Collagen Type 1 solution from rat tail (3 mg/mL, C3867, Sigma-Aldrich) (rat, UniProt P02454 152-1207; P02466 86-1125); experiment: cell-based or functional assay
Collagen Type 1 solution from rat tail (3 mg/mL, C3867, Sigma-Aldrich), sequence (P02454 152-1207 limits assumed, chain 1 of 2): as the sequence (P02454 152-1207 limits assumed) above
Collagen Type 1 solution from rat tail (3 mg/mL, C3867, Sigma-Aldrich), sequence (P02466 86-1125 limits assumed, chain 2 of 2): as the sequence (P02466 86-1125 limits assumed) above

## TKKLTLRT [CBP]
Type 1 rat tail collagen [1]
  Mean fibril width: 121.4 nm and 121.40 nm
Type 1 rat tail collagen [2]; after 20 min ALP-driven mineralization
  DMT (elastic) modulus: 6.52 GPa
Type 1 rat tail collagen [2]; pre-mineralization
  DMT (elastic) modulus: 5.16 GPa
Type 1 rat tail collagen [3]
  average Ca—P ratio: 1.30
  mineral formation morphology on SEM images: branched columnar mineral growth

## MLPHHGA [HABP1]
[4]; DCA class HABP1 Mineral II
  MNRp 960/1460: 3.59
  FMHW PO4^−3): 35.6
  GMC 1078/960: 0.22
  Ca-P/collagen 960/1667: 13.2
[4]; DCA class HABP1 mineral I
  MNRp 960/1460: 2.88
  FMHW PO4^−3): 39.6
  GMC 1078/960: 0.31
  Ca-P/collagen 960/1667: 23.9
[4]; adhesive/dentin specimen, compared with mineralization procedure without peptide
  mineralization shown with a RAMAN peak consistent with CaPO4 formation (960 cm^−1): mediates mineralization
Type 1 rat tail collagen [1]
  Mean fibril width: 129.9 nm and 129.90 nm
Type 1 rat tail collagen [3]
  average Ca—P ratio: 1.41
  mineral formation morphology on SEM images: more extensively branched columnar mineral growth as well as plate-like mineral growth

B1: hydroxyapatite-binding peptide (HABP1), MLPHHGA (peptide)
peptide: MLPHHGA-OH
[5]
  fibril width, Coefficient of variation, AFM topographical imaging: 67.5
  fibril width, Standard Deviation, AFM topographical imaging: 87.6 nm

B2: collagenase-collagen-binding peptide (CBP), TKKLTLRT (peptide)
peptide: TKKLTLRT-OH
[5]
  fibril width, Coefficient of variation, AFM topographical imaging: 17
  fibril width, Standard Deviation, AFM topographical imaging: 20.7 nm

B3: bifunctional peptide TKKLTLRT-APA-MLPHHGA (CBP-HABP1) (peptide)
peptide: TKKLTLRTAPAMLPHHGA
[5]
  fibril width, Coefficient of variation, AFM topographical imaging: 32.1
  fibril width, Standard Deviation, AFM topographical imaging: 26.5 nm
